± gives the uncertainty stated by the source.
Test: self-splicing fitness, log relative to wild type (ln ratio); higher = more splicing; Tetrahymena group I intron in knt gene, E. coli kanamycin selection, DiMSum; sequences stand for … in CUCUCU…GGAGGGAAAAGUUAUCAGGCAUGCACCUGGUAGCUAGUCUUUAAACCAAUAGAUUGCAUCGGUUUAAAAGGCAAGACCGUCAAAUUGCGGGAAAGGGGUCAACAGCCGUUCAGUACCAAGUCUCAGGGGAAACUUUGAGAUGGCCUUGCAAAGGGUAUGGUAAUAAGCUGACGGACAUGGUCCUAACCACGCAGCCAAGUCCUAAGUCAACAGAUCUUCUGUUGAUAUGGAUGCAGUUCACAGACUAAAUGUCGGUCGGGGAAGAUGUAUUCUUCUCAUAAGAUAUAGUCGGACCUCUCCUUAAUGGGAGCUAGCGGAUGAAGUGAUGCAACACUGGAGCCGCUGGGAACUAAUUUGUAUGCGAAAGUAUAUUGAUUAGUUUUGGAGUACUCGUGGUCG
Summary of the method: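 Colonies from six replicate transformations of E. coli BL21(DE3) were pooled and amplicon-sequenced on an Illumina HiSeq 2500. The library placed an intron with all eight P1ex-region nucleotides randomised inside the knt kanamycin-resistance gene on pET-22b(+), and cells grew overnight at 37°C or 30°C on LB agar with or without 25 μg/mL kanamycin (plus 100 μg/mL carbenicillin, 50 μM IPTG, 0.2% rhamnose). Fitness is the DiMSum error-weighted combination of wild-type-normalised replicate fold changes, kanamycin versus none.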

| Sequence | self-splicing fitness (ln) (30 °C) | self-splicing fitness (ln) (37 °C) |
| --- | --- | --- |
| CUUAAGCAAUAUUACGGUAU | -4.7 ± 0.34 | -2.35 ± 0.22 |
| CUUAAGCAAUAUUACGUAAC | -3.05 ± 0.24 | -1.26 ± 0.2 |
| CUUAAGCAAUAUUACGUAGA | -3.6 ± 0.22 | -2.82 ± 0.34 |
| CUUAAGCAAUAUUACGUAGC | -3.71 ± 0.23 | – |
| CUUAAGCAAUAUUACGUGAC | -1.91 ± 0.13 | -2.06 ± 0.14 |
| CUUAAGCAAUAUUACGUGCC | -4.6 ± 0.38 | -1.53 ± 0.18 |
| CUUCAGCAAUAUUACGAACA | -0.812 ± 0.18 | -1.3 ± 0.21 |
| CUUCAGCAAUAUUACGAAUG | -0.722 ± 0.065 | -0.456 ± 0.093 |
| CUUCAGCAAUAUUACGACGC | -0.697 ± 0.26 | 0.21 ± 0.28 |
| CUUCAGCAAUAUUACGAGCU | -3.82 ± 0.29 | -3.41 ± 0.33 |
| CUUCAGCAAUAUUACGAGUC | – | -2.56 ± 0.18 |
| CUUCAGCAAUAUUACGAUGU | -3.67 ± 0.21 | -2.07 ± 0.2 |
| CUUCAGCAAUAUUACGCGAC | -2.88 ± 0.31 | -1.75 ± 0.41 |
| CUUCAGCAAUAUUACGCGGG | -3.7 ± 0.19 | -2.61 ± 0.2 |
| CUUCAGCAAUAUUACGGAAC | -2.45 ± 0.16 | -2.12 ± 0.33 |
| CUUCAGCAAUAUUACGGCGG | -2.02 ± 0.27 | -1.25 ± 0.18 |
| CUUCAGCAAUAUUACGGGCC | -1.78 ± 0.22 | – |
| CUUCAGCAAUAUUACGGGCG | -0.584 ± 0.076 | -0.302 ± 0.098 |
| CUUCAGCAAUAUUACGGUGU | -4.48 ± 0.21 | -3.73 ± 0.25 |
| CUUCAGCAAUAUUACGUAUU | -3.18 ± 0.17 | -2.37 ± 0.2 |
| CUUCAGCAAUAUUACGUCAG | -0.735 ± 0.054 | -0.0836 ± 0.082 |
| CUUCAGCAAUAUUACGUCAU | -3.34 ± 0.21 | -3.76 ± 0.34 |
| CUUCAGCAAUAUUACGUGUU | -3.34 ± 0.19 | -2.72 ± 0.24 |
| CUUCAGCAAUAUUACGUUCU | -4.03 ± 0.33 | -2.26 ± 0.2 |
| CUUGAGCAAUAUUACGACAU | -3.581 ± 0.028 | -2.55 ± 0.041 |

| Sequence | self-splicing fitness (ln) (30 °C) | self-splicing fitness (ln) (37 °C) |
| --- | --- | --- |
| CUUGAGCAAUAUUACGAGCG | -2.14 ± 0.1 | -0.889 ± 0.09 |
| CUUGAGCAAUAUUACGAGGC | -2.91 ± 0.26 | -2.89 ± 0.27 |
| CUUGAGCAAUAUUACGAGUA | -2.07 ± 0.37 | -2.52 ± 0.32 |
| CUUGAGCAAUAUUACGCACG | -3.3 ± 0.44 | -2.48 ± 0.43 |
| CUUGAGCAAUAUUACGCAUC | -3.14 ± 0.4 | -2.75 ± 0.44 |
| CUUGAGCAAUAUUACGCCCG | -2.41 ± 0.46 | – |
| CUUGAGCAAUAUUACGCGCG | -3.32 ± 0.29 | -1.63 ± 0.25 |
| CUUGAGCAAUAUUACGCUGA | -2.33 ± 0.25 | -1.9 ± 0.23 |
| CUUGAGCAAUAUUACGGCUC | – | -1.67 ± 0.36 |
| CUUGAGCAAUAUUACGGCUG | -1.55 ± 0.14 | -1.46 ± 0.19 |
| CUUGAGCAAUAUUACGGGAU | -2.99 ± 0.32 | -2.63 ± 0.31 |
| CUUGAGCAAUAUUACGGGUG | -1.24 ± 0.072 | -0.485 ± 0.078 |
| CUUGAGCAAUAUUACGGUGA | -3.34 ± 0.27 | -2 ± 0.25 |
| CUUGAGCAAUAUUACGUAAA | – | -0.936 ± 0.2 |
| CUUGAGCAAUAUUACGUACA | -1.97 ± 0.4 | -1.77 ± 0.38 |
| CUUGAGCAAUAUUACGUCAC | -3.37 ± 0.23 | -2.73 ± 0.31 |
| CUUGAGCAAUAUUACGUUUA | -3.56 ± 0.26 | -2.88 ± 0.28 |
| CUUUAGCAAUAUUACGAAGA | – | -2.43 ± 0.34 |
| CUUUAGCAAUAUUACGAGGC | -2.85 ± 0.41 | -1.36 ± 0.26 |
| CUUUAGCAAUAUUACGAUAC | -3.4 ± 0.39 | -2.42 ± 0.45 |
| CUUUAGCAAUAUUACGCACG | -1.41 ± 0.21 | -0.277 ± 0.2 |
| CUUUAGCAAUAUUACGCAGG | -2.83 ± 0.39 | – |
| CUUUAGCAAUAUUACGCCGA | -2.8 ± 0.48 | -2.32 ± 0.39 |
| CUUUAGCAAUAUUACGCGGU | -2.14 ± 0.19 | -0.796 ± 0.22 |
| CUUUAGCAAUAUUACGCGUC | -4.35 ± 0.3 | -2.85 ± 0.22 |

From the supplement of paper PMC7877785
